The results in this text go back to article PMC2849744.

This test concerns the target ANF-RGC 669WTAPELL675 deletion mutant (UniProt P18910). The test is described as follows: radioligand binding.
UniProt P18910, sequence (P18910 29-1057, stated change not applied): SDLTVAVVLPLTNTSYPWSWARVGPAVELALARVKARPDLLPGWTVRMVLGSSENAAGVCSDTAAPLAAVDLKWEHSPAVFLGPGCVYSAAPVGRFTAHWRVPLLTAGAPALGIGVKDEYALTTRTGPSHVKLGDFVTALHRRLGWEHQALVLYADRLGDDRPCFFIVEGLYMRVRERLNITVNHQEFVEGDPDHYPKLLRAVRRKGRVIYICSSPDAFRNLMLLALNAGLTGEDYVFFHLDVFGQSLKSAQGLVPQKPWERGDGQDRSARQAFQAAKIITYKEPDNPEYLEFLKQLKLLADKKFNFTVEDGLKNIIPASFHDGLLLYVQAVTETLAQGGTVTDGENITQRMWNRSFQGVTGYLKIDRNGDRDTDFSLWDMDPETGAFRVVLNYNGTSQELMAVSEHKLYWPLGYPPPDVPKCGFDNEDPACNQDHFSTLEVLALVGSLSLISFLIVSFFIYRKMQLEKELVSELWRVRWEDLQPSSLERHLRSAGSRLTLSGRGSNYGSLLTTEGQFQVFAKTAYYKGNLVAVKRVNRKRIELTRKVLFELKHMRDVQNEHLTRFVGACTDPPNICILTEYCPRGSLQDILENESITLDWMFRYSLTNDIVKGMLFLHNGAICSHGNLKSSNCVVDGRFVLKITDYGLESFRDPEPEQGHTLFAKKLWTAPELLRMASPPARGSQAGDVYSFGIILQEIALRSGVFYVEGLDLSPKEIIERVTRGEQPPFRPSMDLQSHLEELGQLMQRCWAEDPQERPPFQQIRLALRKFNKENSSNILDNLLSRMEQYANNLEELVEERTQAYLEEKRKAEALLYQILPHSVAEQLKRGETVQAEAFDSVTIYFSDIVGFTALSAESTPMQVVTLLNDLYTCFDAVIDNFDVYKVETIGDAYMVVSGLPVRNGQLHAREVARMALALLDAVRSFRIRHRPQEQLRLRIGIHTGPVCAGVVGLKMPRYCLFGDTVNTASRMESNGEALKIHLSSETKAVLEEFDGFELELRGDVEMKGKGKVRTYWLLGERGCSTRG

For the substance “atrial natriuretic factor (ANF) (peptide)”, the specific binding (pmol [125I]ANF/mg protein) came to 10.1.
